Measurements published in US20030203451A1 (Genentech, published 2003).

How the values were obtained:
[1] = molecular target: recombinant IL-17E (baculovirus, Examples 33/34) (human) (UniProt Q9H293); test: SPR (BIAcore 1000), IL-17E immobilized on CM5 chip, IL-17RH1 ECD in solution, 1:1 model
[2] = molecular target: T1, IL-17R extracellular domain (residues 1-288), baculovirus, Examples 33/34 (human, UniProt Q96F46 33-320); test: SPR (BIAcore), IL-17F immobilized, receptor ECD in solution
T1 construct: range 1-288; also called IL-17R ECD

[3] = molecular target: T2, IL-17RH1 (PRO5801) extracellular domain (residues 1-275), baculovirus, Examples 33/34 (human) (UniProt Q9NRM6); test: SPR (BIAcore 1000), IL-17RH1 ECD immobilized on CM5 chip, IL-17E in solution, 1:1 model
T2 sequence: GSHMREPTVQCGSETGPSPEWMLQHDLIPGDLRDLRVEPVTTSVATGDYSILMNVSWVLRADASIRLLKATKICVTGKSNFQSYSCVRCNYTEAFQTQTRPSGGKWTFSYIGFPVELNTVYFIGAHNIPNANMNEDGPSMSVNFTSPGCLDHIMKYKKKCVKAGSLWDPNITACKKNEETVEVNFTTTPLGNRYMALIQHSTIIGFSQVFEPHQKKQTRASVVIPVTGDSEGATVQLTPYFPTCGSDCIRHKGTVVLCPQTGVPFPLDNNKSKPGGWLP

[4] = molecular target: T1, IL-17R extracellular domain (residues …); test: SPR (BIAcore)
[5] = molecular target: T3, IL-17RH1 (PRO5801) expressed on transfected 293 cells (human, UniProt Q9NRM6 18-502); test: FACS on 293 cells co-transfected with GFP and IL-17RH1, ligand-Fc detected with PE anti-human Fc antibody, GFP-positive cells
T3 construct: also called IL-17RH1 expressing cells
T3 sequence: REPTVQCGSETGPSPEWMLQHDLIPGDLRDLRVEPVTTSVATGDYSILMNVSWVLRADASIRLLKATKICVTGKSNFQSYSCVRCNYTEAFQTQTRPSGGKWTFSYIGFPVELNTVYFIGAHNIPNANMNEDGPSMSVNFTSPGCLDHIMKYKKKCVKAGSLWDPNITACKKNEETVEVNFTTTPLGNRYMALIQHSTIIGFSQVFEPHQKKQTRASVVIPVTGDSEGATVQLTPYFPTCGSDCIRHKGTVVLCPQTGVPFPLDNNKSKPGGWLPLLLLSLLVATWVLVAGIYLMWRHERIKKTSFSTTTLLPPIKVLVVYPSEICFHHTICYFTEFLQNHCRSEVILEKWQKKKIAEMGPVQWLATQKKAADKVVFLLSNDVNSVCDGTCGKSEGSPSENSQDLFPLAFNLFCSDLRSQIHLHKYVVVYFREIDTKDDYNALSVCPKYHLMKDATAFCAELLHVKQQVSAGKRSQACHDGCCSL

[6] = molecular target: T3, IL-17RH1 (PRO5801) expressed on …; test: flow cytometry competition against IL-17E immunoadhesin on IL-17RH1-transfected 293 cells

Molecule “IL-17RH1 (PRO5801) extracellular domain (residues 1-275), baculovirus, Examples 33/34 (from UniProt Q9NRM6 18-292) (receptor)” has a Kd [1] of 1.1 nM, a koff [1] of 0.0007 s⁻¹ and a kon [1] of 670000 M⁻¹ s⁻¹.

B1: recombinant IL-17F (baculovirus, Examples 33/34) (ligand)
chain: GSHMRKIPKVGHTFFQKPESCPPVPGGSMKLDIGIINENQRVSMSRNIESRSTSPWNYTVTWDPNRYPSEVVQAQCRNLGCINAQGKEDISMNSVPIQQETLVVRRKHQGCSVSFQLEKVLVTVGCTCVTPVIHHVQ
modifications: N-glycosylation at Asn 53 (mature numbering); about 3 kDa carbohydrate per dimer
notes: The same protein was crystallized; also called IL-17F (PRO20110); immobilized IL-17F
B1: no binding (tested: up to 1 µM) [2].

B2: recombinant IL-17E (baculovirus, Examples 33/34) (ligand)
chain: GSHMYSHWPSCCPSKGQDTSEELLRWSTVPVPPLEPARPNRHPESCRASEDGPLNSRAISPWRYELDRDLNRLPQDLYHARCLCPHCVSLQTGSHMDPRGNSELLYHNQTVFYRRPCHGEKGTHKGYCLERRLYRVSLACVCVRPRVMG
notes: also called IL-17E (PRO10272); soluble IL-17E
For B2, the Kd [3] was 1.4 nM, the koff [3] was 0.00062 s⁻¹ and the kon [3] was 430000 M⁻¹ s⁻¹. B2: no binding [4].

B3: IL-17E-Fc fusion protein (IL-17E immunoadhesin) (Fc fusion)
chain: YSHWPSCCPSKGQDTSEELLRWSTVPVPPLEPARPNRHPESCRASEDGPLNSRAISPWRYELDRDLNRLPQDLYHARCLCPHCVSLQTGSHMDPRGNSELLYHNQTVFYRRPCHGEKGTHKGYCLERRLYRVSLACVCVRPRVMG
notes: not shown: Fc region of human IgG1, fused in frame at the C-terminus
B3: binds [5].

B4: His epitope tagged IL-17E (E. coli, refolded) (ligand)
chain: B3 chain
notes: also called IL-17E 8xHis-tag fusion; not shown: 8xHis-tag fusion
B4: binds [6].
